Source: publication PMC12412668

Legend:
[1] = molecular target: T1, CD96 on primary human CD4^+ T cells and PBMCs (human (endogenous in primary CD4^+ T cells and PBMCs)) (UniProt P40200)
T1 sequence: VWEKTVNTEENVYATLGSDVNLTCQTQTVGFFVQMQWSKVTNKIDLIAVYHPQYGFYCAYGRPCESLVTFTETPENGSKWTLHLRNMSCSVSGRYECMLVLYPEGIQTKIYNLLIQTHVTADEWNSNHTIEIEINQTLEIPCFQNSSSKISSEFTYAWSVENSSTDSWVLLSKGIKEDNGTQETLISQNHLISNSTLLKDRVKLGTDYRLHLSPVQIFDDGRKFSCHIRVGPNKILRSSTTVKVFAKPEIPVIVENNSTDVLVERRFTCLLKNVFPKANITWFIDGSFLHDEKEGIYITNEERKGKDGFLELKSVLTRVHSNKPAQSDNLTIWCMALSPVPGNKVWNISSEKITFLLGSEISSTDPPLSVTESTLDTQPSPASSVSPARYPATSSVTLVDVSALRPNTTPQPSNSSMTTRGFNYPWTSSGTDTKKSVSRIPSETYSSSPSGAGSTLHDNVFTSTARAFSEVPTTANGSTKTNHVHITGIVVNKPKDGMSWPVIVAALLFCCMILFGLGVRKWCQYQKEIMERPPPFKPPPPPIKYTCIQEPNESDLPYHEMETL

[2] = molecular target: T1, CD96 on primary human CD4^+ T cells and PBMCs (human (endogenous in primary CD4^+ T cells and PBMCs)); remark: listed apart in the source

Row | Binder | adherence of primary CD4^+ T cells (mock-infected or infected with WT HIV-1) to wells coated with CD155-Fc, percent adherent cells by flow cytometry [1] | IFN-γ release (ELISpot) of PBMCs stimulated with HCMV pp65 peptide and costimulated with soluble CD155 (5 μg/ml), fold change relative to pp65 alone [2]
1 | Recombinant human CD155-Fc chimera (carrier-free) (Fc fusion) WPPPGTGDVVVQAPTQVPGFLGDSVTLPCYLQVPNMEVTHVSQLTWARHGESGSMAVFHQTQGPSYSESKRLEFVAARLGAELRNASLRMFGLRVEDEGNYTCLFVTFPQGSRSVDIWLRVLAKPQNTAEVQKVQLTGEPVPMARCVSTGGRPPAQITWHSDLGGMPNTSQVPGFLSGTVTVTSLWILVPSSQVDGKNVTCKVEHESFEKPQLLTVNLTVYYPPEVSISGYDNNWYLGQNEATLTCDARSNPEPTGYNWSTTMGPLPPFAVAQGAQLLIRPVDKPINTTLICNVTNALGARQAELTVQVKEGPPSEHSGISRN | 20% | –
2 | Human CD155 (PVR) Fc chimera recombinant protein (Fc fusion) WPPPGTGDVVVQAPTQVPGFLGDSVTLPCYLQVPNMEVTHVSQLTWARHGESGSMAVFHQTQGPSYSESKRLEFVAARLGAELRNASLRMFGLRVEDEGNYTCLFVTFPQGSRSVDIWLRVLAKPQNTAEVQKVQLTGEPVPMARCVSTGGRPPAQITWHSDLGGMPNTSQVPGFLSGTVTVTSLWILVPSSQVDGKNVTCKVEHESFEKPQLLTVNLTVYYPPEVSISGYDNNWYLGQNEATLTCDARSNPEPTGYNWSTTMGPLPPFAVAQGAQLLIRPVDKPINTTLICNVTNALGARQAELTVQVKEGPPSEHSGISRN | – | < 8 fold
